Measured values as given in US20130136731.

Test system: N_EGF_TCS_SK

## thrombin
  cleavage of the purified construct by thrombin (N-terminal protein sequencing): The thrombin cleavage was indeed found to be true in case of the purified construct, after treatment with thrombin
